In patent US20140249076A1, “AMYLIN-CALCITONIN CHIMERIC PEPTIDES CONJUGATED TO DURATION ENHANCING MOIETIES” (AMYLIN PHARMACEUTICALS, LLC, priority 2011, published 2014):
Numbered stars: 1 amine (or outer) side, 2 acyl side, 3 side chain; on linkers, the order of the positions; unused ones are H or OH. Side chains are listed from the residue outwards. Ends that are not written are not given here. γGlu = O=C(O)[C@H](CCC(=O)[*:2])N[*:1]

Legend:
[1] = target: rat C1a calcitonin receptor (rat) (UniProt P32214); test: displacement of 125I-human calcitonin from C1a-HEK cell membranes
[2] = target: CGRP receptor (SK-N-MC cell membranes) (UniProt Q16602); test: displacement of 125I-human CGRP from SK-N-MC cell membranes
[3] = target: amylin receptor (RNA membranes); test: displacement of 125I-rat amylin from RNA membranes

Chain of CGRP receptor (SK-N-MC cell membranes) (Q16602 23-461, chain 1 of 2): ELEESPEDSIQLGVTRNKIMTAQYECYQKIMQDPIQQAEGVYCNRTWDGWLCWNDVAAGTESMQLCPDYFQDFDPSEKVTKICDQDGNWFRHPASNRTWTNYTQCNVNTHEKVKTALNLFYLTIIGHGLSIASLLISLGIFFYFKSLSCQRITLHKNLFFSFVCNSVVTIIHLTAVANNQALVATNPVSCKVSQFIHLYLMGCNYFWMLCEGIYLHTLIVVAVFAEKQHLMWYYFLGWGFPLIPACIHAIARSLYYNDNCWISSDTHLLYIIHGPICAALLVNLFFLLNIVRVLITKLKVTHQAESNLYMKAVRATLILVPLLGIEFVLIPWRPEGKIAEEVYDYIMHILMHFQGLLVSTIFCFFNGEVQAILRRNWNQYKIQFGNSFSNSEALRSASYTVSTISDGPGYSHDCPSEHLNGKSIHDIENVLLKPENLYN
Chain of CGRP receptor (SK-N-MC cell membranes) (O60894 27-148, chain 2 of 2, further chain): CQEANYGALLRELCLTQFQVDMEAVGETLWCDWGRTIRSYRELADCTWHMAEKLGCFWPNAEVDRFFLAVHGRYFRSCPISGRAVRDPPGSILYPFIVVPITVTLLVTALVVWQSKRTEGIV

Binder	IC50 [1]	IC50 [2]	IC50 [3]
KCNTATCALQRLAQELHRLQTYPRTNVGSNTY-NH2 (ends and bridges not checked) [Cmpd 17]	0.095 nM		
K([γGlu-C16‑Chain])KCNTATCALQRLAQELHRLQTYPRTNVGSNTY-NH2 (ends and bridges not checked) [Cmpd 195 (Kε-(γ-Glu(Nα-C16-Chain))-Cmpd 17)]	0.046 nM		
KCNTATCALQK([γGlu-C16‑Chain])LAQELHRLQTYPRTNVGSNTY-NH2 (ends and bridges not checked) [Cmpd 193 ([K^11ε(γ-Glu(Nα-C16-Chain))]-Cmpd 17)]	0.168 nM	46.5 nM	0.73 nM
K([γGlu-C16‑Chain])CNTATCALQRLAQELHRLQTYPRTNVGSNTY-NH2 (ends and bridges not checked) [Cmpd 192 ([K^1ε-(γ-Glu(Nα-C16-Chain))]-Cmpd 17)]	0.07 nM		

Now from value to binder:

IC50 [1]	IC50 [2]	IC50 [3]	Binder
1.07 nM	26.3 nM	0.806 nM	KCNTATCALQRLAQELHK([γGlu-C16‑Chain])LQTYPRTNVGSNTY-NH2 (ends and bridges not checked) [Cmpd 186 ([K^18ε-(γ-Glu(Nα-C16-Chain))]-Cmpd 17)]
1.49 nM	75 nM	4.01 nM	KCNTATCALQRLAQELHRLQTYPRTK([γGlu-C16‑Chain])VGSNTY-NH2 (ends and bridges not checked) [Cmpd 189 ([K^26ε-(γ-Glu(Nα-C16-Chain))]-Cmpd 17)]
0.151 nM	0.77 nM	0.446 nM	KCNTATCALQRLAQELHRLQK([γGlu-C16‑Chain])YPRTNVGSNTY-NH2 (ends and bridges not checked) [Cmpd 187 ([K^21ε-(γ-Glu(Nα-C16-Chain))]-Cmpd 17)]
0.898 nM	100 nM	1.61 nM	KCNTATCALQRLAQELHRLQTYPK([γGlu-C16‑Chain])TNVGSNTY-NH2 (ends and bridges not checked) [Cmpd 188 ([K^24ε-(γ-Glu(Nα-C16-Chain))]-Cmpd 17)]
